Measured values reported in paper PMC11535040, “Requirement of Nek2a and cyclin A2 for Wapl-dependent removal of cohesin from prophase chromatin” (The EMBO Journal, 2024).

Biological target: T1, Flag-tagged Pds5b (wild type) phosphorylated by Nek2a and Cdk1/2-cyclin A2 (human, UniProt Q9NTI5 1-1447, phosphoserine at 1161 and 1166 (by Cdk1/2-cyclin A2) and at 1177, 1182 and 1209 (by Nek2a))
T1 construct: Pds5b, human; insert by PCR on human cDNA; How fully each site was phosphorylated in these preparations was not measured; also called Pds5b-WT treated with these two kinases; Pds5b co-expressed with Nek2aΔMR and Δ86-cyclin A2
T1 sequence (looked up): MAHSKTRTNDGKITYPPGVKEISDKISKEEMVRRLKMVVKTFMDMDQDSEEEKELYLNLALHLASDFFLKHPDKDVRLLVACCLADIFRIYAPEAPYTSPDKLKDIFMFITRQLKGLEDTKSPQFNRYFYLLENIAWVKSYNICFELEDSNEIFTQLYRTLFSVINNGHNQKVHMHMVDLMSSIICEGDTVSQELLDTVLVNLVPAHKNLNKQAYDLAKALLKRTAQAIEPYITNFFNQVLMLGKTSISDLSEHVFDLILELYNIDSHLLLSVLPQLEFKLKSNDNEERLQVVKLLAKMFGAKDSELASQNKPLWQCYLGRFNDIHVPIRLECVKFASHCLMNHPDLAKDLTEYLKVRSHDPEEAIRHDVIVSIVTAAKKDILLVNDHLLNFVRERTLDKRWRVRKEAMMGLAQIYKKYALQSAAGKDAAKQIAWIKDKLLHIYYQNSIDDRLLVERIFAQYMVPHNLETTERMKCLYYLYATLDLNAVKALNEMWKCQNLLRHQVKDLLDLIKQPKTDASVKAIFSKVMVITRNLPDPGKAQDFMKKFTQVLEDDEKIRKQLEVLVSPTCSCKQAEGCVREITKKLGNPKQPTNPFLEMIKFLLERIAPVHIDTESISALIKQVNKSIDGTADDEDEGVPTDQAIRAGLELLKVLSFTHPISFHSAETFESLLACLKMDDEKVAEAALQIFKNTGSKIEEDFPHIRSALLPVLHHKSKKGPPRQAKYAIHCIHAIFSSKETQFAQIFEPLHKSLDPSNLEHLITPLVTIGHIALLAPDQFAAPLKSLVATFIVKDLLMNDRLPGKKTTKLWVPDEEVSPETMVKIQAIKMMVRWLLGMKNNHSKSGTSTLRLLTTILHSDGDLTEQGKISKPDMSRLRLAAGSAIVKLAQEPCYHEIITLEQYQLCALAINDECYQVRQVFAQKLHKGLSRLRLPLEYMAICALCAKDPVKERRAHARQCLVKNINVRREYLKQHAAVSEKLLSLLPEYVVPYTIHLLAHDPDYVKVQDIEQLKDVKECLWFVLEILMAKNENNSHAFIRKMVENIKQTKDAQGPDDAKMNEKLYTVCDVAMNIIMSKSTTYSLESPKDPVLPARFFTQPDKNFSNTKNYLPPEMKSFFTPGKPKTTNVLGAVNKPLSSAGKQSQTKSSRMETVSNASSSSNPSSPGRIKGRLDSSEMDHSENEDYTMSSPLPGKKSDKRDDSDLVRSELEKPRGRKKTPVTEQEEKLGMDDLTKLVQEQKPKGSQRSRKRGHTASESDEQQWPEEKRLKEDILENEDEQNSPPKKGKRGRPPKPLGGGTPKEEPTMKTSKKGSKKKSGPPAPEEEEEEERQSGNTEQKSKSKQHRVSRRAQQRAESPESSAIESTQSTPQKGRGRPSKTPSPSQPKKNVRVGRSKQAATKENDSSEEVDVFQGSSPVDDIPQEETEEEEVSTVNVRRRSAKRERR
Assay: pull-down; Flag-Pds5b variants affinity-purified from Nek2a- and cyclin A2-free prometaphase cells, incubated on the beads with recombinant Nek2a and/or Cdk1/2-cyclin A2 and ATP, washed, then incubated with recombinant Wapl (2 µl) and sororin (0.3 µg) in 15 µl cleavage buffer without ATP, 20 min at 37 °C; immunoblotting
Conditions: both partners purified

- binding result: binds
B1: recombinant human Wapl (natural protein, UniProt Q7Z5K2 1-1190, looked up)
chain: MTSRFGKTYSRKGGNGSSKFDEVFSNKRTTLSTKWGETTFMAKLGQKRPNFKPDIQEIPKKPKVEEESTGDPFGFDSDDESLPVSSKNLAQVKCSSYSESSEAAQLEEVTSVLEANSKISHVVVEDTVVSDKCFPLEDTLLGKEKSTNRIVEDDASISSCNKLITSDKVENFHEEHEKNSHHIHKNADDSTKKPNAETTVASEIKETNDTWNSQFGKRPESPSEISPIKGSVRTGLFEWDNDFEDIRSEDCILSLDSDPLLEMKDDDFKNRLENLNEAIEEDIVQSVLRPTNCRTYCRANKTKSSQGASNFDKLMDGTSQALAKANSESSKDGLNQAKKGGVSCGTSFRGTVGRTRDYTVLHPSCLSVCNVTIQDTMERSMDEFTASTPADLGEAGRLRKKADIATSKTTTRFRPSNTKSKKDVKLEFFGFEDHETGGDEGGSGSSNYKIKYFGFDDLSESEDDEDDDCQVERKTSKKRTKTAPSPSLQPPPESNDNSQDSQSGTNNAENLDFTEDLPGVPESVKKPINKQGDKSKENTRKIFSGPKRSPTKAVYNARHWNHPDSEELPGPPVVKPQSVTVRLSSKEPNQKDDGVFKAPAPPSKVIKTVTIPTQPYQDIVTALKCRREDKELYTVVQHVKHFNDVVEFGENQEFTDDIEYLLSGLKSTQPLNTRCLSVISLATKCAMPSFRMHLRAHGMVAMVFKTLDDSQHHQNLSLCTAALMYILSRDRLNMDLDRASLDLMIRLLELEQDASSAKLLNEKDMNKIKEKIRRLCETVHNKHLDLENITTGHLAMETLLSLTSKRAGDWFKEELRLLGGLDHIVDKVKECVDHLSRDEDEEKLVASLWGAERCLRVLESVTVHNPENQSYLIAYKDSQLIVSSAKALQHCEELIQQYNRAEDSICLADSKPLPHQNVTNHVGKAVEDCMRAIIGVLLNLTNDNEWGSTKTGEQDGLIGTALNCVLQVPKYLPQEQRFDIRVLGLGLLINLVEYSARNRHCLVNMETSCSFDSSICSGEGDDSLRIGGQVHAVQALVQLFLERERAAQLAESKTDELIKDAPTTQHDKSGEWQETSGEIQWVSTEKTDGTEEKHKKEEEDEELDLNKALQHAGKHMEDCIVASYTALLLGCLCQESPINVTTVREYLPEGDFSIMTEMLKKFLSFMNLTCAVGTTGQKSISRVIEYLEHC
notes: Wapl, human; insert by PCR on human cDNA; Isolated from mitotically arrested cells; also called GFP-SUMOstar-Wapl; source: Hek293T, transiently transfected, taxol-arrested; not shown: GFP, N-terminal, cleaved; SUMOstar, N-terminal, cleaved
